# Biological target: human transferrin receptor 1 (human) (UniProt P02786)
# Test: Carterra LSA SPR array, IgG captured on anti-IgG lawn, hTfR1 as analyte, 25 C, 1:1 Langmuir fit
# Chain of human transferrin receptor 1 (human) (P02786 89-760 limits assumed): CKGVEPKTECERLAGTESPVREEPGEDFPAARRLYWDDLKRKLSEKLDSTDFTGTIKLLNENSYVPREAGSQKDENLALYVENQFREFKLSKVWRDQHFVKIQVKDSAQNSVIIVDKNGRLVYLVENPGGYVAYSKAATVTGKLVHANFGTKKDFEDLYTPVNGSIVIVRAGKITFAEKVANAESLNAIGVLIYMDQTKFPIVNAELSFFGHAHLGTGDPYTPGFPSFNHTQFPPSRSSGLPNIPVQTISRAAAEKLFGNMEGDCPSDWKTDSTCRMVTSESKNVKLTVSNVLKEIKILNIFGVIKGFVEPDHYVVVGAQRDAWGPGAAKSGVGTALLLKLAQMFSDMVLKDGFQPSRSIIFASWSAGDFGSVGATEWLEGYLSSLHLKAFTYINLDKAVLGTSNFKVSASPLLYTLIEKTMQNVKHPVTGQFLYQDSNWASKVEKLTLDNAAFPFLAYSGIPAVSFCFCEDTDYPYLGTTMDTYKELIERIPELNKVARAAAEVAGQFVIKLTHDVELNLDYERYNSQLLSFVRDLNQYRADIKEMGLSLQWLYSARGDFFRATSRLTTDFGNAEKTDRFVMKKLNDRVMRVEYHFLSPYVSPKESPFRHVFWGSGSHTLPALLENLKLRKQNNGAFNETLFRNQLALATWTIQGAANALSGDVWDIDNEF
substance,measurement,value
OKT9 (antibody),Kd,0.536 nM
same,kon,774000 M⁻¹ s⁻¹
